Source: the supplement of paper PMC10724198
± gives the standard deviation of the averaged measurements.

Tests used:
Saccharomyces cerevisiae [1] = assay: protein stability index of tFT-peptide fusion (C-terminal peptide) (PSI (0-1 scale)); higher = more stable (slower turnover)
Protocol: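 MPS profiling in S. cerevisiae of the tFT-X12 degron library: putative degron peptides plus stable controls, 12 aa, fused to the C-terminus of a sfGFP-mCherry timer. Cells are FACS-sorted into 8 mCherry/sfGFP bins and deep-sequenced. PSI runs from 0 (unstable) to 1 (stable). Backgrounds are wild type, das1Δ and doa10Δ at 30 °C, and wild type, das1Δ, cdc34-1 and cdc53-1 at 37 °C; 2-3 technical replicates each.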

Saccharomyces cerevisiae [2] = assay: as above; settings: genetic background: wild type; temperature: 30 C
[3] = genetic background: cdc34-1, temperature: 37 C
[4] = genetic background: cdc53-1, temperature: 37 C
[5] = genetic background: das1 deletion, temperature: 30 C
[6] = genetic background: das1 deletion, temperature: 37 C
[7] = genetic background: doa10 deletion, temperature: 30 C
[8] = genetic background: wild type, temperature: 30 C
[9] = genetic background: wild type, temperature: 37 C
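Also: PSI is a weighted mean of sequencing reads over stability bins, variants kept only with over 10 reads, mCherry proximal and sfGFP distal, peptide attached via GGGS linker.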

Sequence	protein stability index (Saccharomyces cerevisiae [1]; [3])	protein stability index (Saccharomyces cerevisiae [1]; [4])	protein stability index (Saccharomyces cerevisiae [1]; [5])	protein stability index (Saccharomyces cerevisiae [1]; [6])	protein stability index (Saccharomyces cerevisiae [1]; [7])	protein stability index (Saccharomyces cerevisiae [1]; [8])	protein stability index (Saccharomyces cerevisiae [1]; [9])	protein stability index (Saccharomyces cerevisiae [2])
VAFFSVFYWLEC	0.287 ± 0.069	0.424 ± 0.066	0.299 ± 0.021	0.47 ± 0.033	0.261 ± 0.0032	0.29 ± 0.034	0.454 ± 0.018	0.365 ± 0.023
PFYQSGGLVVVV	0.58 ± 0.024	0.63 ± 0.017	0.469 ± 0.034	0.62927 ± 0.00041	0.437 ± 0.021	0.464 ± 0.023	0.583 ± 0.029	0.21 ± 0.039
VTWNFIVYVCCF	0.164 ± 0.0058	0.204 ± 0.0029	0.209 ± 0.016	0.25776 ± 1.6e-05	0.189 ± 0.017	0.19 ± 0.014	0.219 ± 0.0045	0.283 ± 0.011
IVFLPVLLWFSV	0.389 ± 0.0069	0.411 ± 0.0085	0.333 ± 0.032	0.474 ± 0.0013	0.373 ± 0.019	0.297 ± 0.035	0.442 ± 0.0084	0.407 ± 0.015
RKKKRNKKKMIM	0.716 ± 0.058	0.734 ± 0.019	0.629 ± 0.019	0.706 ± 0.022	0.362 ± 0.024	0.342 ± 0.09	0.621 ± 0.0081	0.522 ± 0.044
SRLLGVKVSLVC	0.518 ± 0.025	0.567 ± 0.033	0.419 ± 0.031	0.581 ± 0.0085	0.35 ± 0.0097	0.384 ± 0.031	0.5364 ± 0.0038	0.472 ± 0.032
GRVYLLGLYMSF	0.453 ± 0.041	0.485 ± 0.026	0.306 ± 0.083	0.525 ± 0.064	0.3887 ± 0.0029	0.338 ± 0.026	0.481 ± 0.037	0.373 ± 0.0094
VTGYLSTLTMLC	0.6 ± 0.015	0.654 ± 0.0097	0.551 ± 0.02	0.671 ± 0.023	0.231 ± 0.0097	0.247 ± 0.03	0.5014 ± 0.0011	0.3832 ± 0.0015
KTRQLINKITQM	0.6601 ± 0.00086	0.693 ± 0.019	0.62 ± 0.018	0.7358 ± 0.0036	0.137 ± 0.024	0.153 ± 0.031	0.288 ± 0.031	0.254 ± 0.072
FLFIFFFFLISF	0.208 ± 0.018	0.1806 ± 0.00038	0.256 ± 0.02	0.311 ± 0.027	0.344 ± 0.0055	0.242 ± 0.021	0.295 ± 0.011	0.284 ± 0.018
VRYCFFWVRAVV	0.286 ± 0.027	0.335 ± 0.019	0.233 ± 0.04	0.4555 ± 0.0013	0.173 ± 0.0088	0.194 ± 0.022	0.3718 ± 0.0019	0.278 ± 0.051
RVYLLGLFVRSG	0.552 ± 0.035	0.61 ± 0.014	0.409 ± 0.04	0.632 ± 0.021	0.325 ± 0.017	0.371 ± 0.031	0.574 ± 0.033	0.491 ± 0.0076
NYVFRIIIVLDA	0.269 ± 0.01	0.408 ± 0.11	0.267 ± 0.035	0.429 ± 0.042	0.227 ± 0.059	0.245 ± 0.011	0.349 ± 0.031	0.444 ± 0.0058
APPPVAPAPGSA	0.65 ± 0.026	0.701 ± 0.015	0.653 ± 0.035	0.7043 ± 0.0061	0.647 ± 0.041	0.675 ± 0.053	0.672 ± 0.051	0.709 ± 0.012
AFRFHTYFLLLC	0.0472 ± 0.006	0.0404 ± 0.0043	0.153 ± 0.04	0.184 ± 0.0066	0.0686 ± 0.021	0.0553 ± 0.012	0.0696 ± 0.038	0.0812 ± 0.019
YYLHFRFFIYVF	0.0536 ± 0.019	0.0916 ± 0.0088	0.108 ± 0.035	0.201 ± 0.0051	0.0759 ± 0.019	0.0626 ± 0.013	0.13 ± 0.0084	0.113 ± 0.031
VFRECSFFLVCC	0.255 ± 0.0076	0.287 ± 0.011	0.281 ± 0.026	0.366 ± 0.0094	0.224 ± 0.0033	0.252 ± 0.032	0.315 ± 0.016	0.333 ± 0.036
RVCYQIAISLPI	0.546 ± 0.0067	0.571 ± 0.027	0.438 ± 0.012	0.552 ± 0.013	0.428 ± 0.022	0.432 ± 0.02	0.542 ± 0.03	0.495 ± 0.016
AALFNYVVCFCA	0.474 ± 0.059	0.537 ± 0.035	0.377 ± 0.025	0.512 ± 0.013	0.301 ± 0.0065	0.323 ± 0.015	0.436 ± 0.025	0.358 ± 0.0079
LSSIIRFLIFCL	0.496 ± 0.024	0.532 ± 0.015	0.495 ± 0.024	0.5964 ± 0.0026	0.398 ± 0.031	0.366 ± 0.0049	0.469 ± 0.0062	0.404 ± 0.013

Sequence	protein stability index (Saccharomyces cerevisiae [1]; [3])	protein stability index (Saccharomyces cerevisiae [1]; [4])	protein stability index (Saccharomyces cerevisiae [1]; [5])	protein stability index (Saccharomyces cerevisiae [1]; [6])	protein stability index (Saccharomyces cerevisiae [1]; [7])	protein stability index (Saccharomyces cerevisiae [1]; [8])	protein stability index (Saccharomyces cerevisiae [1]; [9])	protein stability index (Saccharomyces cerevisiae [2])
GLAVLSWLYIEL	0.557 ± 0.022	0.57162 ± 0.00039	0.457 ± 0.031	0.598 ± 0.013	0.445 ± 0.019	0.461 ± 0.014	0.57036 ± 0.0001	0.487 ± 0.013
LLGGFAAFWRIL	0.631 ± 0.061	0.713 ± 0.0012	0.618 ± 0.012	0.753 ± 0.014	0.135 ± 0.015	0.15 ± 0.02	0.297 ± 0.026	0.226 ± 0.06
PAVRRLTGLMLM	0.6812 ± 0.0047	0.7493 ± 0.0057	0.612 ± 0.014	0.737 ± 0.024	0.276 ± 0.011	0.321 ± 0.0051	0.566 ± 0.022	0.413 ± 0.011
CLYATQFWGRYG	0.69 ± 0.062	0.74 ± 0.019	0.629 ± 0.025	0.7737 ± 0.005	0.229 ± 0.0079	0.258 ± 0.033	0.6 ± 0.014	0.434 ± 0.07
LLPSNFLLLVGV	0.219 ± 0.051	0.204 ± 0.011	0.217 ± 0.03	0.325 ± 0.014	0.208 ± 0.012	0.231 ± 0.023	0.2857 ± 0.0024	0.289 ± 0.032
IKERRKVSMKVY	0.639 ± 0.023	0.688 ± 0.02	0.519 ± 0.035	0.677 ± 0.018	0.321 ± 0.009	0.373 ± 0.015	0.557 ± 0.032	0.474 ± 0.022
TLVFPRFLFLVV	0.348 ± 0.02	0.365 ± 0.019	0.393 ± 0.031	0.493 ± 0.023	0.518 ± 0.011	0.363 ± 0.028	0.432 ± 0.0083	0.452 ± 0.066
VCIPLLVIRFLV	0.098 ± 0.013	0.182 ± 0.014	0.234 ± 0.022	0.386 ± 0.029	0.0616 ± 0.019	0.0599 ± 0.014	0.0485 ± 0.00051	0.109 ± 0.0095
RFLACSIRYLVY	0.294 ± 0.012	0.425 ± 0.037	0.286 ± 0.025	0.41 ± 0.008	0.227 ± 0.0073	0.277 ± 0.018	0.4 ± 0.027	0.332 ± 0.025
WLKLWSYVTHLG	0.66 ± 0.047	0.723 ± 0.0092	0.632 ± 0.025	0.717 ± 0.022	0.303 ± 0.0094	0.346 ± 0.021	0.581 ± 0.017	0.477 ± 0.036
FFCSILLGIILL	0.385 ± 0.014	0.401 ± 0.0091	0.364 ± 0.029	0.507 ± 0.016	0.47 ± 0.0098	0.37 ± 0.033	0.451 ± 0.011	0.399 ± 0.04
RHIRGLNLIKLI	0.316 ± 0.092	0.672 ± 0.034	0.652 ± 0.025	0.69 ± 0.034	0.0672 ± 0.022	0.0745 ± 0.011	0.0777 ± 0.0067	0.161 ± 0.044
FFFFSFFLATFS	0.227 ± 0.018	0.36 ± 0.016	0.288 ± 0.055	0.418 ± 0.013	0.264 ± 0.029	0.26 ± 0.036	0.39074 ± 0.00019	0.305 ± 0.026
GRVFSSFFLYIS	0.051 ± 0.02	0.0556 ± 0.0033	0.112 ± 0.011	0.184 ± 0.011	0.14 ± 0.0057	0.0543 ± 0.017	0.0883 ± 0.017	0.0831 ± 0.0098
LLLFLHILRYVF	0.541 ± 0.026	0.551 ± 0.015	0.417 ± 0.028	0.581 ± 0.046	0.398 ± 0.025	0.368 ± 0.016	0.529 ± 0.088	0.414 ± 0.026
RGWWWFVVVLCR	0.165 ± 0.0082	0.139 ± 0.0061	0.216 ± 0.033	0.316 ± 0.0084	0.2215 ± 0.00025	0.197 ± 0.012	0.2951 ± 0.0014	0.329 ± 0.028
LRLFIFLLFSVF	0.246 ± 0.025	0.282 ± 0.023	0.268 ± 0.034	0.39 ± 0.012	0.19 ± 0.0081	0.175 ± 0.015	0.249 ± 0.013	0.198 ± 0.013
IPLGLTLVQCLY	0.614 ± 0.03	0.61 ± 0.029	0.491 ± 0.042	0.60744 ± 0.00017	0.4357 ± 0.00058	0.477 ± 0.009	0.576 ± 0.0069	0.53 ± 0.053
EFFTLYDLVRFI	0.742 ± 0.042	0.79 ± 0.05	0.669 ± 0.048	0.791 ± 0.05	0.192 ± 0.00011	0.232 ± 0.013	0.434 ± 0.04	0.38 ± 0.025
